Measured values taken from patent publication US6383734B1, “Method to determine inhibition of PAK3 activation of Raf-1” (Advanced Research and Technology Institute, Inc., priority 1998, dated 2002).

What was measured:
Raf-1 serine 338/339 = test: In vitro kinase assay with Raf-1 peptide and Raf-CR3 as substrates; format: biochemical, human
Procedure: (§1) B. Kinase assays. Kinase samples were assessed for their ability to phosphorylate 500 μM Raf-1 peptide (33,[…]345) (SEQ ID NO:4) in the presence of 500 μMATP (containing 2 μCi [γ-^32P]-ATP at 30° C. for 10 minutes. Incubations were analyzed by P-81 phosphocellulose paper assay. Phosphorylation of serine 338/339 in Raf-CR3 was determined by similar incubations containing 1 μg of substrate at 30° C. for 30-60 minutes. Proteins were resolved by SDS-PAGE, transferred to Immobilon-P and the dried, Ponceau S-stained membranes were autoradiographed. Raf-1 kinase activity was measured by the coupled assay method using GST-Mek 1, GST-Erk1 and myelin basic protein by the method of D. Stokoe et al., Science, 264, 1463 (1994).
D. Expression of recombinant Raf-CR3 in E. Coli. DNA sequences encoding residues 307-648 of human c-Raf-1 were amplified by polymerase chain reaction using the 5′-primer […] (SEQ ID NO:5) and the 3′-primer […] (SEQ ID NO:6). The amplified DNA was purified, digested with EcoRI and XhoI and cloned into the Stratagene pCAL-n vector. The entire Raf-CR3 coding sequence was verified by termination reaction PCR DNA sequencing. Raf-CR3 D338E339 and A338A339 substitution mutants were generated by site-directed mutagenesis using the Promega Altered SitesTM in vitro mutagenesis system. Raf-CR3-calmodulin binding protein fusions were expressed in E. coli strain BL21 (pLysS). […]

Raf-1 = target: T1, Raf-1 (Homo sapiens, UniProt P04049); test: Raf kinase activity after co-transfection of PAK3 constructs with Raf-1 (with or without Ras[V12]) into COS-7 cells; format: cell-based
T1 construct: expressed in transfected cells; host or cells: COS-7
Procedure: as §1
F. Transfections. COS-7 cells were transfected with 10 μg of each plasmid DNA (pcEXV3 containing Ras^[V12], myc-Raf, myc-Raf-CX or pJ3H containing PAK3) by electroporation. Cells were lysed three days post-transfection in the presence of protease and phosphatase inhibitors and Raf-1 kinase activity was then examined as described by Stokoe et al., cited above. Transfection/expression efficiencies were assessed by densitometric scanning of Western blots of immunoprecipitates as well as cell lysates and data sets were normalized accordingly.

## Recombinant PAK3: recombinant His-tagged mouse PAK3 from Sf9 cells
Raf-1 serine 338/339; co-incubation with GST-Rac-GTPγS or GST-Cdc42-GTPγS, FIGS. 4c and 4d
  stimulation of Raf-1 peptide and Raf-CR3 serine 338/339 kinase activity by GTPase: stimulated up to six-fold

## p37: 37-kD Raf-1 serine 338/339 kinase purified from rat spleen, a proteolytically cleaved catalytic domain of PAK3
Raf-1 serine 338/339; kinase purified from rat spleen, Mono-P eluate
  specific activity (Raf-1 peptide phosphorylation): 19,500 pmol/min/mg

## wild type PAK3: wild type p21-activated protein kinase PAK3, expressed from plasmid in COS-7 cells
Raf-1
  increase of Raf-CX or Ras[V12]-inducible Raf-1 activation on co-expression: did not significantly increase
